{"source": "patent US20110237779A1", "biological_target": "human IgE (human) (UniProt P01854)", "sequence (P01854 other isoform, or with tags, fused parts or gaps)": "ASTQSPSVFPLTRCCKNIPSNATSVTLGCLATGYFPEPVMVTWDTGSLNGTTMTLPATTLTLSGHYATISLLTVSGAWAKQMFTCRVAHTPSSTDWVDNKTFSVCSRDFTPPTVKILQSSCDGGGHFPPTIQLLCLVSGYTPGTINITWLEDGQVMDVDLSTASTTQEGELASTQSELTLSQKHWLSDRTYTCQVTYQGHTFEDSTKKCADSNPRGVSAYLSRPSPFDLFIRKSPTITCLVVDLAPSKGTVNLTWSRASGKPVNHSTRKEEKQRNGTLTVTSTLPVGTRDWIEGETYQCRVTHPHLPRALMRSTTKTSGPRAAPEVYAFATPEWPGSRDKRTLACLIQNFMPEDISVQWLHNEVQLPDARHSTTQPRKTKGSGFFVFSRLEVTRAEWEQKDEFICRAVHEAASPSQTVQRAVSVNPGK", "experiment": "phage ELISA, solution competition: Fab-phage incubated with serially diluted IgE, unbound phage captured on IgE-coated wells; IC50 used as affinity estimate"}
{"substance": "Mae11-based hypervariable region graft with S34K and W35L in CDR-H1 of the VH domain (Fab displayed on phage)", "values": [{"measurement": "IC50", "result": 4, "unit": "nM"}]}
